± gives the standard error. For some of these results: This sample holds only a part of the variants without activity.
B1: glmS ribozyme (parent)
chain: AUAAAAGCGCCAGAACUACAGAAAUGUAGUUGACGAGGAGGAGGUUUAUCGAAUUUUCGGCGGAUGCCUCCAAA

Assays:
Settings in all cases: with glucosamine-6-phosphate
glucosamine-6-phosphate [1] = variants of: B1; assay: kcat; higher = faster cleavage; RNA array
Outline: (§1)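 Glucosamine-6-phosphate, from 40 μM to 10 mM in HEPES/KCl/Mg(OAc)2 buffer, was flowed over sequenced MiSeq chips carrying barcoded ribozyme variants transcribed in situ by E. coli RNA polymerase. A hybridised Cy3 probe tracked the variants at 37 °C as tiles were imaged over ~14 h. kobs, kcat and KM were obtained by fitting normalised per-tile medians to exponential decays and then applying weighted Michaelis–Menten fits across concentrations.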

glucosamine-6-phosphate [2] = variants of: B1; assay: self-cleavage kobs at 640 uM GlcN6P; higher = faster cleavage; RNA array
Outline: as §1

glucosamine-6-phosphate [3] = variants of: B1; assay: self-cleavage kobs at 2500 uM GlcN6P; higher = faster cleavage; RNA array
Outline: as §1

glucosamine-6-phosphate [4] = variants of: B1; assay: self-cleavage kobs at 160 uM GlcN6P; higher = faster cleavage; RNA array
Outline: as §1

glucosamine-6-phosphate [5] = variants of: B1; assay: self-cleavage kobs at 10000 uM GlcN6P; higher = faster cleavage; RNA array
Outline: as §1

glucosamine-6-phosphate [6] = variants of: B1; assay: KM; higher = weaker cofactor use; RNA array
Outline: as §1

glucosamine-6-phosphate [7] = variants of: B1; assay: self-cleavage kobs at 40 uM GlcN6P; higher = faster cleavage; RNA array
Outline: as §1

Variant | kcat (glucosamine-6-phosphate [1]) [s⁻¹] | self-cleavage kobs at 640 uM GlcN6P (glucosamine-6-phosphate [2]) [s⁻¹] | self-cleavage kobs at 2500 uM GlcN6P (glucosamine-6-phosphate [3]) [s⁻¹] | self-cleavage kobs at 160 uM GlcN6P (glucosamine-6-phosphate [4]) [s⁻¹] | self-cleavage kobs at 10000 uM GlcN6P (glucosamine-6-phosphate [5]) [s⁻¹] | KM (glucosamine-6-phosphate [6]) [µM] | self-cleavage kobs at 40 uM GlcN6P (glucosamine-6-phosphate [7]) [s⁻¹]
U57G C71A | 3.11e-05 ± 9.7e-06 | 4.65e-05 ± 1.5e-05 | 3.2e-05 ± 1.5e-05 | – | – | – | –
U56G C70A | 4.56e-05 ± 9.3e-06 | 7.43e-05 ± 3e-05 | 6.95e-05 ± 1.6e-05 | 3.41e-05 ± 1.7e-05 | 3.66e-05 ± 8.6e-06 | – | –
U56G C70G | 9.25e-05 ± 3.2e-06 | 8.21e-05 ± 8.7e-06 | 9.14e-05 ± 1.1e-05 | 6.12e-05 ± 1e-05 | 9.54e-05 ± 9.8e-06 | 61.4 ± 13 | 4.14e-05 ± 9.7e-06
U65A C67G C71G | 2.24e-05 ± 6.2e-06 | – | – | – | – | – | –
A64G C68A | < 1e-05 | – | – | – | – | – | –
G37A G63A | – | – | – | – | – | 278 ± 110 | –
U56G C67G | 0.000876 ± 9.7e-05 | 0.00028 ± 2.1e-05 | 0.000582 ± 5.1e-05 | 9.74e-05 ± 8.1e-06 | 0.00081 ± 7.6e-05 | 1260 ± 220 | 3.84e-05 ± 5.8e-06
C58G G60U | < 1e-05 | < 1e-05 | < 1e-05 | < 1e-05 | – | – | < 1e-05
C58G | 0.000194 ± 8.4e-06 | 3.47e-05 ± 1.2e-06 | 8.3e-05 ± 1.6e-06 | 1.37e-05 ± 2.9e-06 | 0.000149 ± 2.3e-06 | 3180 ± 300 | –
C58A | 0.000863 ± 0.00012 | 0.000118 ± 2.7e-06 | 0.000305 ± 7.2e-06 | 3.84e-05 ± 2.2e-06 | 0.000665 ± 2.3e-05 | 4110 ± 820 | 1.13e-05 ± 2.2e-06
C58U | 0.00011 ± 3.8e-06 | 1.66e-05 ± 1.8e-06 | 3.96e-05 ± 1.2e-06 | – | 7.7e-05 ± 1.3e-06 | 4350 ± 360 | < 1e-05
A64G C71G | 0.000386 ± 8.2e-05 | 0.000495 ± 0.00013 | 0.000271 ± 2.9e-05 | 6.24e-05 ± 2e-05 | 0.000398 ± 5.8e-05 | – | –
U65A G66U | 0.00046 ± 4.8e-05 | 7.65e-05 ± 9.6e-06 | 0.00023 ± 3.3e-05 | – | 0.000342 ± 3.1e-05 | 3170 ± 620 | –
U65A G66C | 0.000476 ± 5.1e-05 | 0.000156 ± 3.2e-05 | 0.000267 ± 8.2e-05 | – | 0.000436 ± 8.9e-05 | 1400 ± 320 | –
U65C U69G | 4.17e-05 ± 1.1e-05 | – | 5.5e-05 ± 2.3e-05 | – | – | – | –
A36C C61U | – | – | – | – | – | 44.5 ± 18 | –
